The values below come from the DeepSol protein solubility set.

This series is described as follows: soluble on expression in E. coli; label from the status in PepcDB or PDB records.
In the case of “MKIRSQVGMVLNLDKCIGCHTCSVTCKNVWTGREGMEYAWFNNVETKPGIGYPKNWEDQQEWQGGWVRDVNGKIRPRLGGKMGVISKIFANPVIPQIDDYYEPFTFDYQHLHNAPESKHQPTARPRSLIDGKRMDKVIWGPNWEELLGGEFEKRARDRNFDNIQKEMYGQFENTFMMYLPRLCEHCLNPSCVATCPSGAIYKREEDGIVLIDQDKCRGWRLCISGCPYKKIYFNWKSGKSEKCIFCYPRIESGQPTVCSETCVGRIRYLGVLLYDADRIEEAASTEHETDLYERQCDVFLNPHDPAVIEEALKQGIPQNVIDAAQRSPVYKMAMDWKLALPLHPEYRTLPMVWYVPPLSPIQSYADAGGLPHNGNILPAVETLRIPVQYLANMLSAGDTGPVIRALKRMMAMRHYMRSQTVEGVTDTRAIEEVGLSIQQVEEMYRYLAIANYEDRFVIPTSHREMARDAFPERNGCGFTFGDGCHGSDTKFNLFNSSRIDAINITEVRDKAEGE”, the “soluble on expression in E. coli” value is given as “not soluble”. On to “MGSDKIHHHHHHMIVYNSGAALEKARVRVGLVGTGYAAKFRAEALLHDERSQLIAVVGHTAEKTEAFVREYQIKALSSWQELVEREDVDLVVICTVNRDHGAIARAALTNGKHVIIEYPLSLDVVEADELIALAKAQKKLLHVEHLELLGGLHQALKQNLAKIGEVFYARYSTINPQNPAPRKWTYNHELFGFPLIGALSRLHRLIDLFGTVFTVNCHQRYWEIEPEYYQTCFCTSELCFNSGLLAQVVYGKGESIWQSERKFEVHGEKGGLVFDGDTGIFIQPEETTPIEVGPRRGLFAKDTAMVLDHLFDGTPLYVTPEQSLYTLKVADAAQRAAQTGFTMFM”, for which the “soluble on expression in E. coli” value is reported as “not soluble”. As for “MGVPAFFRWLTKKYPATVVNANEDRQRDQDGNRVPVDCTQPNPNFQEFDNLYLDMNGIIHPCTHPEDRPAPKNEDEMFALIFEYIDRIYSIVRPRRLLYMAIDGVAPRAKMNQQRSRRFRASKEMAEKEASIEEQRNRLMAEGIAVPPKKKEEAHFDSNCITPGTPFMARLADALRYYIHDRVTNDASWANIEIILSDANVPGEGEHKIMDYVRKQRGNPAHDPNTVHCLCGADADLIMLGIATHEANFNIIREEFVPNQPRACDLCGQYGHELKECRGAENETDLGDDYCKPEQREKNFIFLRIPVLREYLEKELSMPNLPFKFDVERALDDWVFLCFFVGNDFLPHLPSLEIREGAIDRLIKLYKEMVYQMKGYLTKDGIPELDRVEMIMKGLGRVEDEIFKRRQQDEERFQARMCREESPADIASRKRKAEQPLIKPEEEEDEGPKDDIRLYESGWKDRYYRAKFDVGSDDIEFRHRVAWAYVEGLCWVLRYYYQGCASWDWYFPYHYAPFASDFETVGEFQPDFTRPTKPFNPLEQLMSVFPAASKQHLPVEWQKLMIQDDSPIIDLYPADFRIDLNGKKYAWQGVALLPFVDETRLLATLQSVYPTLTAEEKQRNTRGPNRIFIGRNHKSFEFFQQVAESKSDDLVPLDPTLLNGVSGKIAYDSTATAPGLPFVSPVNHDECQDLPTNCGICVLYEDPEYPQDYIFPALRLDGAKEPEKTLKPDDWNDRRDGRYQPQVGFNRNAPRGSLDQSGHRQVHHYVRGGGGGGGGYRGNSYDDRRGGGGGGGGYNDRQDFGRNYGGRDGGGPQRYHDQQQQRQGGYQGGGYGGGYGGGGGGGGGGGGGSYHQPYNQDQRRGGRGGGGGPPGYQRPPYRGGGGGGYHGNSSWR”, the “soluble on expression in E. coli” value is recorded as “not soluble”. The same measure for “MGSDKIHHHHHHMKHTEMSLTDKKIIITRAQEQTSEARKIFRKNGAEVFDLPSLVIGPPDDWAPLDDALKKISTFDWIIFSSANGVRNVEDRMREIGLSLSKISKTIQIAAVGRKTASLLSDMDAEISFVPPSFVADSLLEYFPQNQKGLKLFIPRVQTGGRSILSDSFRLNGAEVTEVAAYESSCPKDVPQKTIEALKSGEIDIIAFTSGKTVINTVSLFNKYFGGNWFKLIEKIKLVSIGPQTTISCKKLIRKPDKEAEPHDLEGLLNACLELKFN”: “not soluble”; for “MGSDKIHHHHHHMNNINEKSTYHHGDLRETLLVVATEMLQENGIKEVSLRKLASRVGVSRTAPYHHFKDKNALLCGMAEKGFEQLHQINKCGYEDGELSIREHFYRFIHDYIQFAHNNPDLYELMFGRTIWKDKSSTQELRDSAYPCFQFQVAMTQEWQKKGLFNVDDNALRVSQVLWGTVHGIAKLFIDGIYTDNSKIDEICDYAVSMFLSNSKK”: “not soluble”; for “GPGSMAASQLIATRFTDLLAEGNIESALKYIANDVVYNTWLGVVYGKDNVEVFLRDNVRFVHHGRNYNRWKQVQHSLDASLKQFTVNDVSGYDESALDVRSYYDSEGYDSQGYATFERDGTIASHAKFAVFHVKVKETVVLRNNKVVLVNVSKRA”: “not soluble”. The same measure for “MRHPLISLLLLIAFYSTSSEAFVPKCNSFYVRWPRVRLNFKAVAEARLSLKGCQSACSLGEDPVSPGKQLECAAVNHQASPDGFSHLCAVFQPHQLQNVDGYVEADDRFTFYWKYCLPSTRKCSGEYAFTYLSDRYMDQKSVIKWTTKANLEECLSDCLDEKSFECRSISFNRTDGGCHMSKDSQISRPEAIRLNNNPNYRIDYYENNCYNLSESFTFKHECRDNGISVSVKSRLPYTGAIYGLYDFFTCRTEPKEATEFDHFFPYQTVSKNCSDSIKYKGNEMVLEVVLSTDGIEPLYFITPEDLTYQAKCPISGVKAKDPANTKSSAHLDNRNKAMEASAHALFELLSKTGDDEALQNTFPLPLTTTTEVISDVPTTTVQTSTTVPTTPSKTTATTTTTPKPTTTETATTSSSTTTVTTQKPTTVTSTTTLPSTTASTTTKTTTSTPTSPQTTTTHVGAPASSVASVAHDGSTLAGKPKVPVIFDIFHNGQPVEAVVVGTKISLSFRPHYPIPPEYVDVRGCQVEPIDPKYEWEHEPLFIIRDGCPADGVGLVCPPTHSEFGAKVSVEAFRYQTTGQVQYSCLVRICPFAPCPKNTCDDVEGCDSSYMHRYRRELSLEDIKKALEANPELASQFGISPSAFARNPSKSKNFTSVVEEQQRIALGGDYLVRRRLIVVNSEDQLRYYVRTGNI”: “not soluble”; for “GMCINRQILNAVTASNRKKNTPLNTYVSFDEPVNPEDDSQVKLVDVLKSDKEQNPERLFIDQENAESLEDKLYSVLSGFEKNVLELYMSGKDYIAIAQTLDKPPKSIDNAIQRIRNKVDKITNL”: “not soluble”. Under “MSMPKCEICNDDYSSEDGDHSPRNLKCSHTLCEGCIKKMLGNSKIVCPFCREPTDMPGNKMESLHKNFALIQAIQLFAKTTKITEVEEPMLEKCKHHPDYLVETVCVEEDCSESGKYMCRKCVSTLSHLHHTKKSLIAEMEKSRELLQGRINRLNKTIGEIDQDVRKLRMSQIAFREGGNNYQQKANEITTFYSRIREMVNEREKEALVKLKEVAKSILDENDSALPPLLRSHQKLTEYVRKATEAKKRNNAIACITAAEDLLNKTKDCCDEEYYTIESQDINVCIKPIDIPVATITRK” stands “not soluble”. With “MMAQEISNLVKKYNVTWQQTMLRIYDPKETVEFYEKNFGMINIHTYHFNEYNFSLYFLITPPYDEEERKKLPEPNTKESEKYLWNLNTVCLELTYNHNSQEKLSNGNNENDRGFGHIAFNCNDVIEQCDNLFKKNVKFHKLPHETKMKTIGFALDPNNYWIEIVKRSNQVKWKNYKNITNFSQTMIRVKNPEKSLYFYIHILGMKLIHVKHCSDFSLYFLKSNYACAENNKEMIEDQSNKNTNEIYDFNSLKNSYQTDEDYENFKQSWEPVLELTHNHGTEDDDNFSYHNGNTEPRGFGHIGFLVNDLENYCKELETLNVTFKKKVTEGLMKNIAFIYDPDNYVIELIQRDTSFIAK”, the “soluble on expression in E. coli” value is on record as “not soluble”.

In the case of “MAHHHHHHMKAKGFHHSTPNFNTAEFTDAADPSDLANDIVTESAVAVDFARDIYGPWLVMTDDLQGELFVDHDGFVYYRPANGLGYGIGKLQVLDAGATGTAFTCQLESYSYQPTNTVVPQYGLTFDITGMVKRVTAKSSDYKTFSLVGVWRRSNRNKGAPALLPSQRSSSDAAVEGASAALSPESLDNQGALDGPGEKTSGQFNAAKLSPWDPSTAARPFAPNAELQSVFTQVFPERLRAESHVQRAEASRESPAARHLAGCAGKPSLMHLDLEQYATGKIPGIYYIPDYISVAEEAQILTFIHGTPEELKSKLTKRTCQEWGCTMCESCQKSFVSDANMPQWVQEFIDMQVYDGLFTPTTFPNSVRIHEYHQGDGIGPHCDGPIYVPMVTVLSLASSCLMSFYPKQPLYENHPMDHYNDTFKFGEGDIGRRVPLQSVVMEPRSLLIFSGEGYYHYPHGISDKAEEVLTPEVVGEVVNRRFLRDPHVQSIPRTYRASITTRNLMTRCSHQPARAEYAMKRAWYLYNHLPVPSELFTPAPQLPQQQQQPAGVSAGGSSGSRESSDASATRSPQKRVESFFPACAPPGTVAVDTELREAIYEMRARQEDLRNNVEELKQLVALSIPVQTTFQTETATILNHLSSSVLQLESKVDDLLEEVESAKRKSSTDT”, the “soluble on expression in E. coli” value is recorded as “not soluble”. Under “MAHHHHHHMQRHTVEKKLQRSTHAAECHTDVAVVRLPHVQREVRQRLVHHAARVAVDSSLRQGRHNRVGHLKGKTRRAMPSVPAAARARVAVHRLRPGHVARRVVVARAAPEHHHALRKHTVVQHLPPFLVQVAPHHKPRGRRHNRVRWKKFGKGCTSFHLTVVCKHHSGAAARQLNFLLRTWHT” stands “not soluble”; under “MSLAKFAPVQYKYIIKAEFEIDGIVDREDIIGAIFGQTEGLLGMELDLRELQKQGKLGRIEVEYKRVGNKTIGTITIPTSLKAVETSLIAAAIETVDRVGPAKARFRVKEIVDVRSSKREYIRNRAKELFVQMMSKTAPDIEELRRELEEAYYSKQLIEYGEEKLPAGPLVEKSDEIILVEGRADVVNLVKHGILNVLGMNGINIPKSVVELSKRKKVTLFIDGDRGGELVLRNMLAAGADIDYVAVAPPGREVEELTNKEILKALKSKIPLEQYIKNLRISINNDENKEKYKELLSKVFDTKKAIVFDEQFNIIDEKPLEEIDKLPSAYGIAIDKILDNETYAKIKGKYQLILALDSNVNAQERVITLKDIQEGHHHHHH”, “not soluble”. Under “MSFKEIKAEDLQFNPFTRIGSDWMLITAGDEKKFNTMTASWGGAGVFWGKNVVTCYIRPQRYTKEFVDANDTFTLSFYGPECKNALNLCGTVSGRDRDKISEAGLTPYFTEGTAAFEEANLIFVCRKIYQDDMPYENFIAKENDAKYYPNKDYHTMYIAEIVKILVAE” stands “not soluble”; under “GPGSMDVSKRPREELHKEQCLSFVKKLWAADTLAMFHYPVSATEVPGYYDVVETPMDLSTIRKNIEQGTYRTDAEVENDVVLMLSNALDFNEKGSQWHDLAKQFKKQYLTLARESGLSFDADQAFIPTKKVRDDESTLRKAEKKGEEKLEDVLQAMEKDKEIPLEQLRAMYARRTTRGKADQQSSDFSSGRGNDDSDEVVSSDEEDTSDSGSGSYDTEEDEDSLDSESASKDDDDDK”, “soluble”.

For “AFMQDRLKIMRQQNPAASLQHQWVDYEQISSHLKRAVIAAEDARFLQHQGFDYKAIETAWKKNLKQRKWAAGGSTISQQLAKNLFLSTEKTVWRKSRETLITLMLEEFLTKRRILEIYLNIIEWGDGIFGIEAAARHYFGISAASLTPAQAAWLASIIPNPRFYDTRRTLPKLLNKSRIILSRLPAAKIP”, the “soluble on expression in E. coli” value is given as “not soluble”. The same measure for “MGEPVIEAQISAGFDSDSGFRHAFSRLAGQPPSNLRGRELLKVDWLQTPIGVMLAVADLEHHHHHH”: “not soluble”; for “MPSPARRSRRRRSSLLNFSFSEVDLEQQRRALEMFEQQMNDQAFAQLIHDHDVQHINNDANQVPAAPNTPPVPVPPPVQQPQASPNASPVSVLRRRRYANPEQERFGDISRRIHNPANQIPAAPNTQPEVPPTVQQPESSSQERASPTSPEITIFSTGLLGLRRRSSARISIRMSATAQTNLPITPIRRRRGRAVSPILEIEFENLSSSSSGTSGDSGNHSSPTNTNDQSFIGDDARTYDQEHVPIDFEGPSTSTGITDRHPRRRNQDGSHGECTMCFEVPVSPLGCNNCLQIIGCEECVDIWYRSSSKPSCPLCRRKWARKPDVSKMSVISVRKQSSLRRSKRRITSK”: “not soluble”.
